Experimental data from US20110124574A1, “RESTORATION OF ESTROGEN RECEPTOR-(ALPHA) ACTIVITY” (priority 2008, published 2011).
Where no end group is shown, it is not given here. The star is where a group is joined. For = O=C*

How the values were obtained:
Format in all cases: cell-based, human
ERα [1] = assay: ERα protein expression by Western blot in stimulated MDA-MB-468 cells; settings: stimulation for 24 and 48 hours
Procedure: Breast cancer cells were grown in 6 well plates, and stimulated with recombinant Wnt-5a protein (rW5a), the Wnt-5a derived Foxy-5 peptide (F5), recombinant Wnt-3a protein (rW3a), or a formylated random hexapeptide (Rdm) for 24 or 48 h. Following treatment cells were lysed and subjected to SDS-PAGE, transferred to nitrocellulose membranes and blotted for ERα expression. A: MDA-MB-231 cells stimulated with recombinant Wnt-5a, Foxy-5, Wnt-3a, Rdm. B: MDA-MB-468 cells stimulated with recombinant Wnt-5a or Foxy-5. C: 4T1 cells stimulated with recombinant Wnt-5a or Foxy-5. Positive controls (Pos) were included in order to confirm the correct band size for ERα. Two different positive controls were used: T47D cell lysates known to express ERα and MDA-MB-231 cells transiently transfected with a full length ERα plasmid, resulting in extremely high ERα expression (top row, right panel, third row, right panel). […]
(§1) Cells were lysed in Triton lysis buffer (50 mM Tris (pH7.5), 1% Triton x-100, 140 mM NaCl, 0.5 mM EDTA, 0.5 MgCl2, 10 mM NaF) with the addition of fresh leupeptin (1 μg/ml), Pefabloc (2 mM), aprotinin (20 μg/ml) and Na3VO4 (4 mM). […] Scanning and densitometry was performed using a Bio-Rad (Hercules Calif.) GS-800 densitometer with Quantity One software. […]

Phospho-ERα (Ser 118) = Phospho-ERα (Ser 118) Western blot in MDA-MB-231 cells; settings: stimulated lysates
Procedure: MDA-MB-231 cells were grown in 6 well plates and stimulated with recombinant Wnt-5a protein (rW5a) or the Wnt-5a derived Foxy-5 peptide (F5), for 24 or 48 h. A: Following treatment, cells were lysed and subjected to SDS-PAGE, transferred to nitrocellulose membranes and blotted for phospho-ERα expression. The positive control (Pos) represents cell lysates from T47D cells expressing ERα B and C: RNA was also extracted from stimulated cells and samples tested for progesterone receptor (PR) (B) and pS2 (C) mRNA using semi-nested RT-PCR. The positive control (Pos) is RNA extracted from T47D cells that express ERα. The negative control represents a water control. PCR results are representative of three separate experiments.
as §1, with “mM). Lysates were incubated on ice for 15 minutes, then pre-cleared by centrifugation for 10 minutes at 8000 g. Cell lysates were separated according to size on 8-12% SDS-polyacrylamide gels and subsequently electrically transferred to PVDF or nitrocellulose membranes.” for “mM).”

cleaved caspase 3 = assay: Cleaved caspase 3 Western blot after tamoxifen; settings: MDA-MB-231, stimulation plus tamoxifen, compared with cells treated only with tamoxifen
Procedure: (§2) MDA-MB-231 cells were grown in 6 well plates and stimulated with recombinant Wnt-5a protein (rW5a) or the Wnt-5a derived Foxy-5 peptide (F5), for 24 or 48 h. Cells were treated with tamoxifen for the final 20 h and their apoptotic responses were measured via different methods. […] Arrows highlight apoptotic cells. Bars represent […]. B: Following treatment with rW5a, F5 and tamoxifen, or tamoxifen alone, cells were lysed and subjected to SDS-PAGE, transferred to nitrocellulose membranes and blotted for cleaved caspase 3. C: Treated cells were assessed for their relative caspase 3 activity using fluorometric spectrophotometry. The graph represents 6 separate experiments. * P<0.01, ** P<0.001. D: MTT assays were also performed on MDA-MB-231 cells treated with rWnt-5a, F5 and tamoxifen, or tamoxifen alone (MDA-MB-231 and MCF-7 cells) to assess cell growth inhibition. The graph represents the average of 6 separate experiments, with standard deviation represented by error bars. ** P<0.01, *** P<0.001.
as §1

MDA-MB-231 cells = assay: MTT proliferation assay; settings: for growth inhibition (MTT) after tamoxifen: MDA-MB-231, stimulation 24 or 48 hours then tamoxifen 5 μM final 20 hours, compared with tamoxifen alone; for effect on breast cancer cell proliferation alone (MTT): without tamoxifen
Procedure: as §2
Cell proliferation was measured via MTT assay (Vybrant) following manufacturers instructions. Briefly, MDA-MB-231 and MCF-7 cells were grown in 96 well plates, then either left unstimulated, or stimulated with rWnt-5a (0.6 μg/ml) or Foxy-5 peptide (100 μM) for 24 or 48 hours. Cells were then treated with 5 μM tamoxifen (Sigma) for the final 20 hours. All cells were then labeled with MTT (3-(4,5-dimethylthiazol-2-yl)-2,5-diphenyltetrazolium bromide), incubated at 37° C. for 4 hours and absorbance measured on a Biorad 680 microplate reader (Biorad). The raw absorbance was measured in 9 replicates at 570 nm, and read outs averaged and adjusted accordingly. The experiment was performed 6 times, and results averaged.

ERα [2] = assay: ERα protein expression by Western blot in stimulated MDA-MB-231 cells; settings: stimulation 24 and 48 hours, rWnt-5a 0.6 μg/ml, rWnt-3a 0.1 μg/ml, peptides 100 μM
Procedure: Breast cancer cells were grown in 6 well plates, and stimulated with recombinant Wnt-5a protein (rW5a), the Wnt-5a derived Foxy-5 peptide (F5), recombinant Wnt-3a protein (rW3a), or a formylated random hexapeptide (Rdm) for 24 or 48 h. Following treatment cells were lysed and subjected to SDS-PAGE, transferred to nitrocellulose membranes and blotted for ERα expression. A: MDA-MB-231 cells stimulated with recombinant Wnt-5a, Foxy-5, Wnt-3a, Rdm. B: MDA-MB-468 cells stimulated with recombinant Wnt-5a or Foxy-5. C: 4T1 cells stimulated with recombinant Wnt-5a or Foxy-5. Positive controls (Pos) were included in order to confirm the correct band size for ERα. Two different positive controls were used: T47D cell lysates known to express ERα and MDA-MB-231 cells transiently transfected with a full length ERα plasmid, resulting in extremely high ERα expression (top row, right panel, third row, right panel).
Stimulation of cells was performed with recombinant Wnt-5a (0.6 μg/ml) and recombinant Wnt-3a (0.1 μg/ml and in a control experiment, 0.6 μg/ml) (R&D Systems Abington, UK) for times as indicated. The Wnt-5a derived formylated hexapeptide, Foxy-5 (formyl-MDGCEL) (SEQ. ID. NO. 1) designed in the laboratory of the inventors, and a formylated random hexapeptide (formyl-MSADVG) (SEQ: ID: NO: 16) were either synthesized by Pepscan Presto (Lelystad, The Netherlands) or Inbiolabs (Tallinn, Estonia). The peptides were purified by RP-HPLC and mass spectrometry, and the >95% pure peptides were synthesized three times. Cells were treated with Foxy-5 or random peptide at a concentration of 100 μM for times as indicated. All other chemicals if not otherwise stated were purchased from Sigma Chemicals (St. Louis, Mo.).
as §1

formyl-MDGCEL (For-MDGCEL; listed as Homo sapiens) [Foxy-5]
ERα levels (ERα [1]): upregulated | Phosphorylated ERα (serine 118) (Phospho-ERα (Ser 118)): detected | levels of cleaved caspase-3 (cleaved caspase 3): higher levels | growth inhibition (MTT) after tamoxifen (MDA-MB-231 cells): statistically significant growth inhibition | effect on breast cancer cell proliferation alone (MTT) (MDA-MB-231 cells): Neither rWnt-5a nor Foxy-5 had an effect

B1: recombinant Wnt-5a: recombinant Wnt-5a protein (R&D Systems) (protein, UniProt P41221 62-380, looked up)
Protein Wnt-5a: IIGAQPLCSQLAGLSQGQKKLCHLYQDHMQYIGEGAKTGIKECQYQFRHRRWNCSTVDNTSVFGRVMQIGSRETAFTYAVSAAGVVNAMSRACREGELSTCGCSRAARPKDLPRDWLWGGCGDNIDYGYRFAKEFVDARERERIHAKGSYESARILMNLHNNEAGRRTVYNLADVACKCHGVSGSCSLKTCWLQLADFRKVGDALKEKYDSAAAMRLNSRGKLVQVNSRFNSPTTQDLVYIDPSPDYCVRNESTGSLGTQGRLCNKTSEGMDGCELMCCGRGYDQFKTVQTERCHCKFHWCCYVKCKKCTEIVDQFVCK
levels of ERα protein (ERα [2]): increase | ERα levels (ERα [1]): upregulated | Phosphorylated ERα (serine 118) (Phospho-ERα (Ser 118)): detected | levels of cleaved caspase-3 (cleaved caspase 3): higher levels | growth inhibition (MTT) after tamoxifen (MDA-MB-231 cells): statistically significant growth inhibition | effect on breast cancer cell proliferation alone (MTT) (MDA-MB-231 cells): Neither rWnt-5a nor Foxy-5 had an effect
